PMC10648297

Biological target: 2-cysteine (Cys) peroxiredoxin A, recombinant mature wild type, tag-free (Arabidopsis)
Assay: LC/MS of the intact protein (deconvoluted masses); oxidised 2CPA with 0 to 19.2 mM GSH and NEM, 50 mM Tris pH 7.5, 25 °C; C4 column, acetonitrile gradient with 0.1% HCOOH; shows disulfide-linked dimers

stoichiometry N: 2
Substance: 2-cysteine (Cys) peroxiredoxin A, recombinant mature wild type, tag-free (enzyme)
